Assay results as given in paper doi:10.1101/2022.02.24.481826v2.

What was measured:
[1] = system: O=c1[nH]cnc2c1ncn2[C@H]1C[C@H](O)[C@@H](COP(=O)(O)OP(=O)(O)OP(=O)(O)O)O1; experiment: EnzChek pyrophosphate release assay, Michaelis-Menten fit; format: biochemical, Arabidopsis thaliana; conditions: dITP to dIMP
[2] = system: O=P(O)(O)OP(=O)(O)OP(=O)(O)OC[C@H]1O[C@@H](n2cnc3c(O)ncnc32)[C@H](O)[C@@H]1O; experiment: as above; format: biochemical, Arabidopsis thaliana; conditions: ITP to IMP

ITPA (Arabidopsis thaliana)
Km [1]: 1.7 ± 0.3 µM | kcat [1]: 1.5 ± 0.17 s⁻¹ | Km [2]: 7.1 ± 1.2 µM | kcat [2]: 1.9 ± 0.25 s⁻¹
